Results as given in the supplement of paper PMC9732359.
± gives the uncertainty stated by the source.

Test: protein stability index of a GFP-peptide fusion (yeast GPS) (PSI 1-4); higher = more stable; sorted into four equal gates, so the index is relative within each strain
Details: pdr5∆
Summary of the method: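 Mid-log yeast cultures in leucine-free medium, carrying a pooled plasmid library, were sorted into four equal gates by their GFP/Cherry fluorescence ratio. Each plasmid expressed Cherry along with GFP fused upstream of a tiled 17-residue yeast protein peptide. Plasmids recovered from each gate were PCR-amplified and Illumina-sequenced, with reads assigned to strains by barcodes. The protein stability index was obtained by summing each gate's read frequency weighted by its gate number.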

Sequence | protein stability index
LYPSFKPIYKDTRFGGR [SSN2] | 3.16 ± 0.087
LYSYLIKENFFERIMIL [YJL039C/NUP192] | 1.42 ± 0.073
MAAQKSFRIKQKMAKAK [RPL39] | 2.97 ± 0.11
MAFEASAAAAGNRNSSS [BRR2] | 3.1 ± 0.11
MAGLSFDNYQRNNFLAE [PUP1] | 3.58 ± 0.1
MAHFKEYQVIGRRLPTE [RPL20A] | 2.07 ± 0.061
MAKFLKAGKVAVVVRGR [RPL27A] | 1.67 ± 0.057
MAKRVADAQIQRETYDS [YLR335W/NUP2] | 2.7 ± 0.14
MANDLVQARDNSQVFGV [RPS14B] | 2.36 ± 0.061
MANLSQIYTQRAYMRPL [SCL1] | 1.46 ± 0.074
MAREHAPSIIFMDEIDS [RPT6] | 2.11 ± 0.077
MARYGATSTNPAKSASA [RPL17A] | 2.91 ± 0.064
MASTAVMMDVDSSGVND [RPN3] | 3.51 ± 0.2
MAYTSHLSSKTGLHFGR [QCR10] | 2.78 ± 0.087
MDDEEWRSKRIEQLFPV [RPC53] | 2.31 ± 0.055
MDNKTPVTLAKVIKVLG [RPS28A] | 1.77 ± 0.22
MDRTQTFIKDCLFTKCL [POP4] | 1.75 ± 0.056
MDWLDNWGRKEHDLLRQ [ITC1] | 3.33 ± 0.26
MERLQRLMMNSKVGSAD [RPN11] | 2.98 ± 0.17
MEYLKSSKSLDLNTRIS [RPN5] | 1.69 ± 0.051
MFILSKIADLVRIPPDQ [RPC25] | 2.69 ± 0.22
MGGIREKKAEYFAKLRE [RPP0] | 3.37 ± 0.082
MGGPKQKGITSYAVSPY [QCR8] | 2.45 ± 0.2
MGGVSALRGMFKDRFKD [FAS2] | 3.55 ± 0.067
MGIVQDTLCGIRKLTLR [RPO21] | 1.74 ± 0.053

Sequence | protein stability index
MGKKTFREWQYFKLSIT [POP8] | 1.76 ± 0.045
MGKRVDFSARTVISGDP [RPO21] | 3.27 ± 0.12
MGQGLCNNINKGLKEND [BRR2] | 3.57 ± 0.15
MHDSNLQNNSDSESDSD [SKP1] | 3.18 ± 0.078
MHKQLAYILAAQKTSFE [RPN1] | 2.46 ± 0.064
MHRPVHFLQFSELAGDE [PRP8] | 3.15 ± 0.084
MIIDEGHRMKNAQSKLS [SNF2] | 1.98 ± 0.061
MINGVYYNEISRDLDIS [POP6] | 1.21 ± 0.14
MIVPVRCFSCGKVVGDK [RPB10] | 2.59 ± 0.12
MKYAVSKTSENKVSNTV [SIR2] | 3.16 ± 0.062
MLRRHAAPPSTNFEILN [DIS3] | 1.8 ± 0.1
MMVNISVLISIPLDNYD [PCI8] | 1.42 ± 0.044
MNVSTSTFQTRRRRLKK [RPB4] | 3.43 ± 0.13
MNYLLDNKINEIKLLEI [CSI1] | 2.81 ± 0.098
MPNDNKTPNRSSTPKFT [SIR4] | 2.55 ± 0.19
MPQSFTSIARIGDYILK [QCR7] | 3.33 ± 0.12
MPYTINELLEMVGLASG [BRR2] | 2.31 ± 0.057
MQAIADSFSVPNRLVKE [PRE2] | 3.02 ± 0.24
MQKHGYIGEFEYIDDHR [RPS22A] | 3.19 ± 0.084
MQSTSPAVKQWDLLPEP [SWI1] | 1.5 ± 0.11
MRELGLIQSTEFPSITS [YOR098C/NUP1] | 3.29 ± 0.092
MRILPRETDPLVYNMTS [RPT4] | 2.85 ± 0.065
MSAAPVQDKDTLSNAER [GAL11] | 3.07 ± 0.16
MSAKAQNPMRDLKIEKL [RPL11A] | 3.26 ± 0.11
MSAPEAQQQKRGGFGGR [RPS2] | 3.25 ± 0.13

Sequence | protein stability index
MSASNANDFQLTIVTCK [SRB8] | 2.41 ± 0.037
MSDFQKEKVEEQEQQQQ [RPS20] | 3.17 ± 0.15
MSEQQWREQLRNRDIAL [ROX3] | 2.85 ± 0.056
MSGGKGGKAGSAAKASQ [HTA1] | 3.13 ± 0.1
MSIGTGSFKVVKGTNIS [RPO31] | 2.19 ± 0.15
MSKIQVAHSSRLANLID [SMB1] | 1.81 ± 0.15
MSPFLRKVVKPSSLNSD [SRB4] | 2.87 ± 0.061
MSQAVNAKKRVFKTHSY [RPS15] | 1.72 ± 0.035
MSSNTSSVMSSPRVEKR [YOR098C/NUP1] | 3.18 ± 0.093
MSTDVAAAQAQSKIDLT [SEM1] | 2.82 ± 0.095
MSTESALSYAALILADS [RPP1A] | 1.97 ± 0.073
MTAMRLMLKKLKNSIMS [YML031W/NDC1] | 1.99 ± 0.087
MTAVRRSTRIRTKSQVI [IRR1] | 3.23 ± 0.081
MTIDDSNRLLMDVDQFD [YJR042W/NUP85] | 3.63 ± 0.21
MTLEDNNVTSNPSEFTP [SSN2] | 3.03 ± 0.067
MTTPQNISSSQQLLPAP [DSN1] | 2.89 ± 0.04
MTTQQEEQRSDTKNSKS [ISW2] | 3.08 ± 0.18
MTVAHLIECLLSKVAAL [RPB2] | 2.01 ± 0.074
MVEGDSYVETLDSMIEL [MED1] | 3.24 ± 0.1
MVGLASGNDSMAGKVLI [BRR2] | 3.4 ± 0.092
MVNIGLHNLNEYQIVYY [RGR1] | 2.56 ± 0.1
MVVQKYKLSTVVLRLYL [GRR1] | 1.58 ± 0.049
MWSVARAGQRGYHSRTS [RPL3] | 3.14 ± 0.091
NAFRKEELLLKDLEIRK [GAL11] | 3.09 ± 0.098
NAGPNSNIPNLLRNLES [YDL088C/ASM4] | 1.96 ± 0.043

Sequence | protein stability index
NANDETTAVEDEDDDLD [RPB4] | 3.13 ± 0.1
NATLQALYRVNDLRDMI [UBP6] | 2.95 ± 0.093
NAVISHANAAAVYFADT [SIN4] | 2.29 ± 0.047
NAVLGLGDMAVCFNNLV [YCS4] | 3.32 ± 0.11
NDEGVWDLVDERTKQRT [PRP8] | 3.37 ± 0.13
NDIPQTESPLKTVDSSI [SSN2] | 3.01 ± 0.055
NDLIVNYEDLATTQAAS [BRN1] | 3.09 ± 0.087
NDNNSPHTPVTRKGYIP [YLR018C/POM34] | 2.88 ± 0.073
NDQDMFTIVSLVQLKKF [YML103C/NUP188] | 2.84 ± 0.11
NDQVEKDAEDETSSDGS [RPN1] | 2.42 ± 0.096
NDSNPSFSFSIPSKNTP [YLR335W/NUP2] | 2.13 ± 0.04
NDTLPDEISPELLSKYK [SNU114] | 2.8 ± 0.072
NDYLEKHSVTEYIFEAH [CDC53] | 2.79 ± 0.12
NEAALVVNITHHELVPK [RPB5] | 2.71 ± 0.06
NECQRLQNIVMDCTKEE [YIL149C/MLP2] | 3.47 ± 0.11
NEDDLTVKLTEIVWTSS [RPO31] | 3.04 ± 0.09
NEEAEARRLKNRAARDR [RPL19A] | 3.32 ± 0.087
NEHSTSYTFRSEKGLLS [FAS1] | 2.36 ± 0.054
NEKKTETNAKPFSFSSA [YLR335W/NUP2] | 3.28 ± 0.088
NEKRYATASAIAATAVA [RPL4A] | 1.53 ± 0.056
NEKVAVMRNTYNTRKNA [GAL11] | 3.14 ± 0.06
NELLEMVGLASGNDSMA [BRR2] | 2.1 ± 0.072
NELLKCKDDVQLQKILE [MTW1] | 3.04 ± 0.051
NEPAARLGSEADAKAFL [FAS2] | 3.42 ± 0.058
